This is an account of results in patent US20060241289A1 (RSR, published 2006).

Test [1] has as its target T1, TSH receptor coated onto plastic tubes or ELISA plate wells (RSR Ltd) / detergent solubilised TSH receptor.
T1 construct: also called TSHR coated tubes; TSH receptor coated tubes
Briefly: Scatchard analysis, 125I-IgG on TSH receptor coated tubes. As for the experimental part: Unlabelled IgG or Fab in 50 μL of assay buffer and 50 μL of ¹²⁵I-labelled hMAb IgG or Fab (30,000 cpm in assay buffer) were incubated for 2 hours at room temperature with gentle shaking, washed twice with 1 mL of assay buffer and counted in a gamma counter.

Test [2] deals with TSH receptor coated onto plastic tubes or ELISA plate wells (RSR Ltd) / detergent solubilised TSH receptor. Description: Scatchard analysis, TSH receptors coated onto plastic tubes.

B1: hMAb TSHR1 IgG (antibody, V domains shown)
VH: QVQLVQSGAEVKKPGESLKISCRGSGYRFTSYWINWVRQLPGKGLEWMGRIDPTDSYTNYSPSFKGHVTVSADKSINTAYLQWSSLKASDTGMYYCARLEPGYSSTWSVNWGQGTLVTVSS
VL: LTVLTQPPSVSGAPRQRVTISCSGNSSNIGNNAVNWYQQLPGKAPKLLIYYDDQLPSGVSDRFSGSRSGTSASLAIRGLQSEDEADYYCTSWDDSLDSQLFGGGTRLTVLG
notes: also called human monoclonal TSH receptor autoantibody; TSMAb TSHR1 IgG
In test [1], B1 had a Ka of 5e+10 M⁻¹.

B2: 9D33 (antibody, V domains shown)
VH: DVQIQQPGTELVKPGASVRLSCKASGYTFTTYWMHWVKQRPGQGLEWIGEIDPSDSYTNYNQKFKGKATLTVDKSSSTAYMHLSSLTSEDSAVYYCSRNYGSGYYFDYWGQGTTLTVSS
VL: GVEMTQSPAIMSASPGEKVTMTCSASSSVSYMHWYQQKSGTSPKRWIYDTSKLASGVPARFSGSGSGTSYSLTISSMETEDAATYYCQQWSSNPWTFGGGTKLEIK
notes: Mouse monoclonal IgG; also called 9D33 IgG; mouse monoclonal antibody to the TSHR (9D33)
As for B2, the Ka in test [2] came to 2e+10 M⁻¹.
